Laboratory results published in article PMC2881812.

Biological target: p22(79-227) (T. brucei)
Assay: SEC

Substance p22(79-227) (domain or fragment) has a stoichiometry N of 3.
